Measurements: patent US20240123058A1 (XIAMEN UNIVERSITY, published 2024)

B1: rabbit monoclonal antibody 3A3 (antibody, V domains shown)
VH: QSVKESGGRLVTPGTPLTLTCTVSGFSLSSYAMSWVRQAPGKGLEYIGVIYASGSTYYASWAKGRFTISRTATTVDLKITSPTTEDTATYFCGRGVSTNMWGPGTLVTVSS
VL: DLVMTQTPSSVSAAVGGTVTIKCQASQSLGGGLAWYQQKPGQRPKLLIYSASTLESGVPSRFRGSGSGTEFTLTISDLECADAATYYCQSAYGPTSNGLFNAFGGGTKVVIK
notes: Recombinant rabbit monoclonal antibody expressed in 293F cells; also called 3A3 antibody
B2: rabbit monoclonal antibody 3A5 (antibody, V domains shown)
VH: QSVKESGGRLVTPGTPLTLTCTVSGFSLSSYEMGWVRQAPGEGLEWIGTISTGGSSYYASWAKGRFTISRTSTTVDLKMTSLTTADTATYFCARGYGGYGIGAGYFNIWGPGTLVTVSS
VL: ALVMTQTPSSVSEPVGGTVTIKCQASQSISSYLAWYQRKPGQRPKLLIYGTSTLASGVPSRFIGSGSGTDYTLTISDLECDDAATYYCQQGFSTSNVYNSFGGGTKVDIK
notes: Recombinant rabbit monoclonal antibody expressed in 293F cells; also called 3A5 antibody

Tests used:
[1] = target: T1, EBV gB protein ectodomain (24-683 aa) of the substituted M81 strain gB protein, C-terminal 6×His tag (EBV M81 strain, UniProt P0C762 24-683); assay: indirect ELISA, coated gB ectodomain
T1 construct: Expressed in 293F cells; also called EBV gB ectodomain
T1 chain: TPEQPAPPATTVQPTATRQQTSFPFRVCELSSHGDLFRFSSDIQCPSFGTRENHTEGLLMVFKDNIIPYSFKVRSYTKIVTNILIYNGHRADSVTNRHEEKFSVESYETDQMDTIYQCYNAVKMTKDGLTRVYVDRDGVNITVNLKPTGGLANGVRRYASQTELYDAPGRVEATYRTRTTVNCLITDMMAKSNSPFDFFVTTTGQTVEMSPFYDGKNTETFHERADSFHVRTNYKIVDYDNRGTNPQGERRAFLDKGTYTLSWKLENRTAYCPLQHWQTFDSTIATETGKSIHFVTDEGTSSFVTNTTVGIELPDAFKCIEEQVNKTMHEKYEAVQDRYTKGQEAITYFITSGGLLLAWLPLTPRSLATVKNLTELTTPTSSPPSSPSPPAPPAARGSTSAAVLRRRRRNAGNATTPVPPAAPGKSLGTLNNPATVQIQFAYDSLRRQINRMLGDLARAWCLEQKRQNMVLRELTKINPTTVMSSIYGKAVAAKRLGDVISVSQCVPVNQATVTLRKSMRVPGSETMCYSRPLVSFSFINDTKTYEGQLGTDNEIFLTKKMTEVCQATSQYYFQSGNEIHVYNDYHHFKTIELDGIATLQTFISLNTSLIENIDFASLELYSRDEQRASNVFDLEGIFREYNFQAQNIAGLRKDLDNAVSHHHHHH

gB-528~616aa = target: T2, gB-528~616aa; assay: Western blot of gB segments displayed on HBc149, reduced and heated
T2 construct: as f3
T2 HBc149/mut carrier with inserted gB segment: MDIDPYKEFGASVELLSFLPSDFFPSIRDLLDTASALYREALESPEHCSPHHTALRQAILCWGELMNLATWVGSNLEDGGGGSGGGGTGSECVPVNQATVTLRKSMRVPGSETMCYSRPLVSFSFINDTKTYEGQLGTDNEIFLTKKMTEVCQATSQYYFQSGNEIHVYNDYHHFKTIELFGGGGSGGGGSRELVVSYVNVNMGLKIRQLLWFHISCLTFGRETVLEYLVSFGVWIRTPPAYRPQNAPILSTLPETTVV

[2] = target: T1, EBV gB protein ectodomain (24-683 aa) …; assay: SPR, Biacore 8K, antibody captured on Protein A chip, gB as analyte
[3] = target: T1, EBV gB protein ectodomain (24-683 aa) …; assay: SPR (Biacore 8K): antibody captured on a Protein A chip, EBV-gB as analyte at 1.5625-200 nM
[4] = target: gB protein on EBV virions used in the neutralization models (Epstein-Barr virus); assay: cell-based or functional assay
[5] = target: T3, HBc149 protein chimerized with gB-331˜367aa epitope; assay: indirect ELISA on the coated HBc149 protein chimerized with gB-331~367aa, antibody titrated
T3 construct: also called Recombination protein gB aa331-367 + HBc149/mut; HBc149 chimeric protein
T3 chain: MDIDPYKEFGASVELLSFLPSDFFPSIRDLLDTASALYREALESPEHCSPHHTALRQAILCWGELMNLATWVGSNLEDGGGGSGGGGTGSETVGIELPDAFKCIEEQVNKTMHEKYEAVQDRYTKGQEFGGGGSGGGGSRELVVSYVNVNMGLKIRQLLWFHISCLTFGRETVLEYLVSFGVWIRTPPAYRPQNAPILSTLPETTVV

[6] = target: T4, wild-type full-length EBV gB protein expressed on cells (EBV M81 strain, UniProt P0C762 22-857); assay: immunofluorescence on MDCK cells transfected with full-length wild-type gB
T4 construct: also called gB protein expressed by cells; natural gB protein
T4 chain: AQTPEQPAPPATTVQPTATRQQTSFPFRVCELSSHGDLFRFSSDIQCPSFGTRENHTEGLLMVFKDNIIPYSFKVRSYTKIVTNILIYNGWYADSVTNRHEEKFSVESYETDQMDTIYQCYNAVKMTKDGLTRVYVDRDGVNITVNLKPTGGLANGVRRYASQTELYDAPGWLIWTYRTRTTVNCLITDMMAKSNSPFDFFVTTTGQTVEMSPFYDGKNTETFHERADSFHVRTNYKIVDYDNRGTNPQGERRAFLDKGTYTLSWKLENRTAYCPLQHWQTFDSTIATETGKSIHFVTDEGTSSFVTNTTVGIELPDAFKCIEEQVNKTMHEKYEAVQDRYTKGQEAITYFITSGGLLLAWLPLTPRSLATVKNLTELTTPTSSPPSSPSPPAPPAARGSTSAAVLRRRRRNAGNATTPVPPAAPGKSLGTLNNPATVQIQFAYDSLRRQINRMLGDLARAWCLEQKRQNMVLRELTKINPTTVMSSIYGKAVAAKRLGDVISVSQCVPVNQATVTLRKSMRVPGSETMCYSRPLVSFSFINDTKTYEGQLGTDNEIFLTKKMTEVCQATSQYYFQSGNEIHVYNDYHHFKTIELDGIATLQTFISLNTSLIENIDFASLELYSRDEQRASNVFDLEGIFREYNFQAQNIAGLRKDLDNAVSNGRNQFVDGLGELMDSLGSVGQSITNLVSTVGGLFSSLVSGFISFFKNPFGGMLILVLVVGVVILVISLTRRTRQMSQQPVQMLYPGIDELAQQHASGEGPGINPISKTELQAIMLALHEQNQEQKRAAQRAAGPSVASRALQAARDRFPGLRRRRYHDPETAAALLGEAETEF

gB-295~390aa = target: T5, gB-295~390aa; assay: Western blot of gB segments displayed on HBc149, reduced and heated
T5 construct: as f3
T5 HBc149/mut carrier with inserted gB segment: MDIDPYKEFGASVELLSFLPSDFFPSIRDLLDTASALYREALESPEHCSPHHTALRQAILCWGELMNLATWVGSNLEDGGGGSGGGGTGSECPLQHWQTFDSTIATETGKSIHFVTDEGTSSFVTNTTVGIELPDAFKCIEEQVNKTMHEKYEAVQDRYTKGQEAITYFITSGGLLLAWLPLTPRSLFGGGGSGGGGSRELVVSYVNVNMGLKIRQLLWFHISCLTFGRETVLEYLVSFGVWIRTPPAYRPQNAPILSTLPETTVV

[7] = target: T1, EBV gB protein ectodomain (24-683 aa) …; assay: indirect ELISA on coated wild-type gB ectodomain, 3A5 titrated [right panel]

Binder | EC50 [1] | binding result (gB-528~616aa) | Kd [2] | koff [3] | kon [3] | IC50 on the B cell infection model [4] | IC50 on the epithelial cell infection model [4] | binding result [5] | binding result [6] | binding result (gB-295~390aa) | EC50 (read off the curve) [7]
B1 | 0.007 µg/mL | no binding (tested: 1 µg/mL) | 0.863 nM | 0.000162 s⁻¹ | 188000 M⁻¹ s⁻¹ | 2.97 µg/mL | 0.07 µg/mL | binds | binds | – | –
B2 | 0.0052 µg/mL | – | 0.411 nM | 0.000266 s⁻¹ | 648000 M⁻¹ s⁻¹ | 4.9 µg/mL | 0.31 µg/mL | – | binds | no binding (tested: 1 µg/mL) | ~0.005 µg/mL
